* marks the point of attachment. Ethoxycarbonyl = CCOC(=O)*; CH2F = FC*
T1: rCaspase 3 (purchased from PharMingen) (UniProt P42574 29-277, limits assumed)
T1 sequence (looked up): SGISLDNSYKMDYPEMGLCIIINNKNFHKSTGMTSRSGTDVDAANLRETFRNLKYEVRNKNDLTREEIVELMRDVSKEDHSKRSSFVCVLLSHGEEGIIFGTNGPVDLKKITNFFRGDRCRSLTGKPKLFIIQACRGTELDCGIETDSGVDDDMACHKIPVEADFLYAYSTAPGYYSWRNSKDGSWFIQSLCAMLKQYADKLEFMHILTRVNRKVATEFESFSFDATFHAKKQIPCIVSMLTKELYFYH


Molecular target: T1, rCaspase 3 (purchased from PharMingen)
Experiment: cell-based or functional assay

Caspase-3 IC50 (fluorometric enzyme assay, cleavage of 10 uM Ac-DEVD-AMC by 2 ng rCaspase 3) [nM] | Binder
72 | cyclohexylmethoxycarbonyl-Val-Asp-CH2F [Cyclohexylmethoxycarbonyl-Val-Asp-fmk]
58 | Ethoxycarbonyl-Val-Asp-CH2F (SMILES CCOC(=O)N[C@H](C(=O)N[C@@H](CC(=O)O)C(=O)CF)C(C)C) [Ethoxycarbonyl-Val-Asp-fmk]

Source: patent publication US20040116355A1 (CYTOVIA, published 2004)
